For 53 substances, amyloid nucleation score results are on record in the supplement of paper PMC12042874.

± gives the uncertainty stated by the source.

This data set in a line: amyloid nucleation score (Sup35N fusion, yeast selection) (log enrichment); library NNK3; higher = more nucleation; inactive = no reads after selection. In outline: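 Peptides of 20 random codons, each fused to Sup35N, were expressed in psi-negative yeast. Cells were induced with 100 μM copper sulfate for 24 hours and grown 7 days at 30°C on medium lacking adenine and uracil, and plasmid inserts before and after selection were Illumina-sequenced. Nucleation scores are DiMSum log enrichments of output over input reads, centred on the mode score of non-aggregating sequences, and sequences under 100 input reads were excluded.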
With IVCRGYSSKWYSVSEYKDNV, the amyloid nucleation score amounted to 0.016 ± 0.37.
IVCRISTTCQWCRINVSGGS came in with an amyloid nucleation score of 1.12 ± 0.1.
With IVDASGQRAMGSDFIHVLHR, the amyloid nucleation score result is “inactive”.
Regarding IVFFYAEIGYSPSQCRRRVA, the amyloid nucleation score entry was “inactive”.
In the case of IVFRLANKPRRANRC, the amyloid nucleation score result is “inactive”.
Take IVGDRSLRSDEFSCC: the amyloid nucleation score result is “inactive”.
In the case of IVGLSHDAINTYLWVVVNAP, the amyloid nucleation score entry was “inactive”.
Turning to IVIRTSSDTNVRAAVQLRMN, the amyloid nucleation score entry was “inactive”.
For IVKKHVDFQQTVN the value was “inactive”; for IVKRFHYYMSVRKLMSKFGL, “inactive”.
IVLCMVFCWSRPWEVIIFKV: the amyloid nucleation score result is “inactive”.
As for IVLIKDYYSIRFDSEGIVDI, the amyloid nucleation score entry was “inactive”.
For IVLIKSILDANEEGT, the amyloid nucleation score result was “inactive”.
Consider IVMRPSIGMILYSRSPFVYS, for which the amyloid nucleation score result is “inactive”.
As to IVMVIAAGWFN, the amyloid nucleation score came to 0.633 ± 0.2.
IVRIVK: the amyloid nucleation score result is “inactive”.
As for IVVFYAFEVFVGEGGKTRVP, the amyloid nucleation score entry was “inactive”.
With IVWEGSSPLVLIKHGICKQR, the amyloid nucleation score entry was “inactive”.
For IVYGKHAWWIRLGSIHVFYY, the amyloid nucleation score result was “inactive”.
IVYPFSGLMPDGAFRKEFDA: the amyloid nucleation score result is “inactive”.
Under IVYRVSVFSWLVMDPDDK stands “inactive”; under IVYTMCDFWSSMDLVDNLQG, “inactive”; under IVYTSSLSAMCMRGRNGAVR, “inactive”.
For IWDGSADKFVDPHRACRLWR, the amyloid nucleation score result is “inactive”.
For IWICYWSCRIKAYRLSNFFD, the amyloid nucleation score result is “inactive”.
As for IWILRKVVLRVVWMRYLGVK, the amyloid nucleation score result was “inactive”.
As to IWIRAVDLGLDGLPSFFSIS, the amyloid nucleation score result is “inactive”.
Under IWKAWDNSSMGCPS stands -0.032 ± 0.33; under IWLRVITLERLEPQM, “inactive”; under IWRGSKDYKSPVRHFSQAN, “inactive”.
Take IWSLDNARNYSIVRSVWLG: the amyloid nucleation score result was “inactive”.
Regarding IYGVSESVYWIVWANIGVLQ, the amyloid nucleation score result was “inactive”.
In the case of IYGWWLGTTYM, the amyloid nucleation score came out at 0.656 ± 0.21.
With IYHYIYSASMKLNTHGELMP, the amyloid nucleation score result is “inactive”.
Turning to IYIHQDPVFKGCYWLRRGVE, the amyloid nucleation score entry is “inactive”.
Take IYLMISWQWGSGLQPNIRPA: the amyloid nucleation score entry is “inactive”.
IYNSAFIGFSRLKVCVYALF: the amyloid nucleation score was 0.471 ± 0.17.
Under IYPLMKTELGRTMILIDLLE stands “inactive”; under IYRLFSARDDIVKDWRR, “inactive”.
Consider IYSVGYRSS, for which the amyloid nucleation score result was “inactive”.
Regarding IYWLSTYRCIKSYSMST, the amyloid nucleation score result was “inactive”.
For KAPRCGVKAMLKGVMGFRRR, the amyloid nucleation score is 0.531 ± 0.24.
KAREVGIQWRKWSIIAWNNW: the amyloid nucleation score turned out to be 1.45 ± 0.095.
For the substance KCAEL, the amyloid nucleation score entry was “inactive”.
Take KCCYRMVVDTV: the amyloid nucleation score result is “inactive”.
For KCEFN the value was “inactive”.
For KCGFLTSPHMFSLK the value was “inactive”.
In the case of KCGFYRTVFCSRVCVRS, the amyloid nucleation score entry is “inactive”.
Consider KCGRSR, for which the amyloid nucleation score result is “inactive”.
For the substance KCVWWCTNWLNVKWVYSTRC, the amyloid nucleation score result is “inactive”.
On to KCYNKVWELMLAYG, for which the amyloid nucleation score result was “inactive”.
As for KDHLHRRYMGRTAVLREIDI, the amyloid nucleation score entry is “inactive”.
As for KDSCCVGSRNAHFECYFEVA, the amyloid nucleation score result is “inactive”.
